Measured values published in patent publication US20190022241A1.

Experiments:
[1] = target: human SEZ6 on NTX tumor cells (human) (UniProt Q53EL9); assay: flow cytometry dot plot of LU64 NTX tumor cells, CD324 against MOPC isotype control
[2] = target: human SEZ6 on NTX tumor cells (human) (UniProt Q53EL9); assay: flow cytometry dot plot of LU86 NTX tumor cells, CD324 against MOPC isotype control
[3] = target: human SEZ6 on NTX tumor cells (human) (UniProt Q53EL9); assay: flow cytometry dot plot of LU117 NTX tumor cells, CD324 against MOPC isotype control

Substance: MOPC (antibody)
- % of cells in the upper right quadrant (CD324+, MOPC+) [1]: 0.597%
- % of cells in the lower right quadrant (CD324-, MOPC+) [2]: 0.014%
- % of cells in the upper right quadrant (CD324+, MOPC+) [2]: 0.483%
- % of cells in the upper right quadrant (CD324+, MOPC+) [3]: 0.347%
